Data reported in patent publication US20200247855A1, “THERAPY AND DIAGNOSTICS” (OXFORD UNIVERSITY INNOVATION LIMITED, priority 2017, published 2020).

Legend:
Assay in all cases: Yeast surface display (YSD) FACS binding
CXCL10_HUMAN = biological target: T1, CXCL10_HUMAN (Homo sapiens, UniProt P02778); details: for Binding to CXCL10_HUMAN, YSD: yeast surface display; for Chemokines bound in yeast surface display and % cells over threshold fluorescence: CXCL10_HUMAN: FACS re-test, mean percent shift where several clones
T1 sequence (P02778 22-98): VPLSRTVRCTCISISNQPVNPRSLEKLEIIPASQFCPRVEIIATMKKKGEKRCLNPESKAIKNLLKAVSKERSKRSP
Protocol: (§1) Table 1. Tick CKBPs described in PCT/GB2017/050563 and [17]. Tick peptide sequences isolated in yeast surface display fluorescent-activated cell sorting (FACS) screens using a labelled chemokine. Identity with Evasin-1, 4 or 3 was calculated using BLAST. Abbreviations: IXORI—Ixodes ricinus, RHISA—Rhipicephalus sanguineus, AMBMA—Amblyomma maculatum, AMBPA—Amblyomma parvum, AMBTR—Amblyomma triste, AMBAM—Amblyomma americanum, AMBCA—Amblyomma cajennense, RHIPU—Rhipicephalus pulchellus. Table 2A-C. Binding characteristics of tick CKBPs previously disclosed (PCT/GB2017/050563 and [17]). All members of the human chemokine family[164] are listed in column 1. Binding to human chemokines was determined for 14 tick CKBPs using biolayer interferometry (BLI) with calculated Kd shown as Molar (Moles/Litre). Binding data for 17 other novel tick CKBPs was assayed using yeast surface display[17,166],with positive binding results shown as “YES”. For biolayer interferometry, His-tagged purified tick CKBP was bound to a Ni-NINTA sensor on an OctetRed® 384 system, and then binding to each chemokine listed (with the exception of CCL25, CCL26, CXCL16, CXCL17, CXCL4L1, XCL2) was assayed in a cross-binding screen at a chemokine concentration of 300 nM as described. For those chemokines showing binding to a tick CKBP in the cross-binding screen, binding assays were repeated using different doses of chemokine. Association, equilibrium and dissociation data were analysed using Octet software to create corresponding fitted curves, and used to calculate Kd. For yeast surface display, (YSD) background fluorescence was controlled for by using either an empty vector or by omitting the chemokine (i.e. using streptavidin-Alexa647 alone). An arbitrary threshold of >3 fold over background mean fluorescence intensity was chosen to describe confirmed re-tests. Where binding was detected data are indicated as “YES”. […] For yeast surface display data, empty cells represent chemokines that were not tested. Binding data published in relation to previously described tick CKBPs (Evasins-1, 4 and 3) is also shown for comparison in each of FIGS. 2A-C, with the relevant data obtained from publications: [20-22,32]. Table 3: Neutralisation of human chemokines by tick CKBPs previously disclosed (PCT/GB2017/050563 and [17]). Neutralising activity was determined using a quantitative THP1 cell migration assay in a 96-well Boyden chamber with chemokine in the bottom chamber as described. Cells migrating through to the bottom chamber at 4 hours were counted using flow cytometry in a 96 well plate format. IC50 for neutralisation was determined at the chemokine EC80 dose as determined using a range of tick CKBP concentrations. Data was analysed using GraphPad Prism to determine IC50, which is shown as Molar (Moles/Litre). Empty cells represent experiments not done. Table 4—Other previously described tick CKBPs. Tick CKBPs that were also described in PCT/GB2017/050563 and Singh et al. are indicated in “Notes”. Table 5.—Novel tick CKBPs of the invention. Table 6. […] The peptide sequence prefix indicates the identity, and suffix indicate the tick species as follows: AMBCA, Amblyomma cajennense and IXORI, Ixodes ricinus. […] Certain tick peptides e.g. P1074_IXORI were recovered from screens performed with more than one chemokine. Individual yeast clones recovered from the library were re-tested using a FACS (fluorescence activated cell sorting), experiment. The binding of the peptide to the chemokine was assayed by measuring the percent (%), of yeast cells expressing the given peptide that exceeded a background threshold set by measuring the fluorescence of the yeast library pool treated with streptavidin-[…] alone. When more than one independent yeast clone was isolated for a given peptide-chemokine combination, the mean percent shift was calculated and reported in column 3. […]

CXCL1_HUMAN = biological target: T2, CXCL1_HUMAN (Homo sapiens, UniProt P09341); set-up: label (chemical); details: FACS re-test; mean percent shift where several clones
T2 sequence (P09341 35-107): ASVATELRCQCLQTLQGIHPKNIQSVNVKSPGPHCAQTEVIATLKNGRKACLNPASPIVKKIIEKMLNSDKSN
Protocol: as §1

CXCL9_HUMAN = biological target: T3, CXCL9_HUMAN (Homo sapiens, UniProt Q07325); details: FACS re-test; mean percent shift where several clones
T3 sequence (Q07325 23-125): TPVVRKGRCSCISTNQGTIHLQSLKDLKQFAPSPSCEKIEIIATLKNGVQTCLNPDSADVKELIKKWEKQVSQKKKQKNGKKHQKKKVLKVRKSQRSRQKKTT
Protocol: as §1

CXCL12_HUMAN = CXCL12_HUMAN (Homo sapiens, UniProt P48061); details: FACS re-test; mean percent shift where several clones
Protocol: as §1

CXCL8_HUMAN = biological target: T4, CXCL8_HUMAN (Homo sapiens, UniProt P10145); set-up: label (chemical); details: FACS re-test; mean percent shift where several clones
T4 sequence (P10145 21-99): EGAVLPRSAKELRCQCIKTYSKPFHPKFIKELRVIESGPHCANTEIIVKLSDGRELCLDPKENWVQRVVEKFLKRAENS
Protocol: as §1

CXCL12_HUMAN, sequence (P48061 22-93): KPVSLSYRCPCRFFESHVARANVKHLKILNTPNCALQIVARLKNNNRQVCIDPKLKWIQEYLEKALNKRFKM

B1: P1219_IXORI: tick CKBP, Ixodes ricinus (protein, listed as Ixodes ricinus)
chain: ASLAKETEDTTLPARALVDSPDSDNCSSPQLPYFDELTYMPLGFLAVNCTKTCPVGKNGTVVNGNKCIVTWSILDVSTITVLVGSCKNGYCISDGSSECRNITLAGEDSQEEEEEAEEDEEEDDGDEEEDEEEDEEENDDD
CXCL10_HUMAN
  Binding to CXCL10_HUMAN, YSD: YES (An arbitrary threshold of >3 fold over background mean fluorescence intensity was chosen to describe confirmed re-tests. Where binding was detected data are indicated as “YES”)

B2: P1134_IXORI: novel CXC-binding tick CKBP, Ixodes ricinus (protein, listed as Ixodes ricinus)
chain: NEEVFTVEYCGMNCTQKSDGTWTECSGKNKDCRCYHESDAREGLCLSTEYTDFSQFETPSNSDLEAATPRPRKTLYPVRNPHGPKTRGLGYDKRILRDRVKFLI
CXCL10_HUMAN
  Chemokines bound in yeast surface display and % cells over threshold fluorescence: CXCL10_HUMAN: CXCL10_HUMAN 66%

B3: P1132_IXORI: novel CXC-binding tick CKBP, Ixodes ricinus (protein, listed as Ixodes ricinus)
chain: LSDEDELFSVEYCGTNCTKQDTGSWTTCSGNCTCYHEDGKKVGLCLSTEYTDFTKFPKPTSEEIANARPLPKREKTLN
CXCL1_HUMAN
  Chemokines bound in yeast surface display and % cells over threshold fluorescence: CXCL1_HUMAN: CXCL1_HUMAN 68%

B4: P1162_IXORI: novel CXC-binding tick CKBP, Ixodes ricinus (protein, listed as Ixodes ricinus)
chain: LNDEELFTVDYCGTNCTQQPNGSWTTCPGNCSCYHEDGKTDGFCLSTEYTDFTQFPNLTSEEMDAATPRPE
CXCL1_HUMAN
  Chemokines bound in yeast surface display and % cells over threshold fluorescence: CXCL1_HUMAN: CXCL1_HUMAN 72%

B5: P1104_IXORI: novel CXC-binding tick CKBP, Ixodes ricinus (protein, listed as Ixodes ricinus)
chain: ESKEASASQGPGKSFKVEFCETNCTENNGVWSGCTGDCICVSVGDSKEGRCMDLGDKVIDTPVAQG
CXCL1_HUMAN
  Chemokines bound in yeast surface display and % cells over threshold fluorescence: CXCL1_HUMAN: CXCL1_HUMAN 65%

B6: P1126_AMBCA: novel CXC-binding tick CKBP, Amblyomma cajennense (protein)
chain: KPQILQRTDKSTDSEWDPQTCPETCIPSKNITCSDGCVCVKLGEEEEGTCFNMTGVDWLGSPSDD
modifications: Amblyomma cajennense
CXCL9_HUMAN
  Chemokines bound in yeast surface display and % cells over threshold fluorescence: CXCL9_HUMAN: CXCL9_HUMAN 56%

B7: P458_IXORI: novel CXC-binding tick CKBP, Ixodes ricinus (protein, listed as Ixodes ricinus)
chain: GSKQPGAAGSSSDSVEAVFCPTNCTKGTNGAWSGCSDDCICVHVGENTEGSCMKFSGDYDYPTPEA
CXCL9_HUMAN
  Chemokines bound in yeast surface display and % cells over threshold fluorescence: CXCL9_HUMAN: CXCL9_HUMAN 37%

B8: P1077_IXORI: novel CXC-binding tick CKBP, Ixodes ricinus (protein, listed as Ixodes ricinus)
chain: GSKQLIGPQSSTNSIKAEFCDTNCTAGTNGIWNGCSGDCFCTHVGNSTEGRCMKITGFDEYPTSEAEE
CXCL1_HUMAN
  Chemokines bound in yeast surface display and % cells over threshold fluorescence: CXCL1_HUMAN: CXCL1_HUMAN 50%

B9: P1166_IXORI: novel CXC-binding tick CKBP, Ixodes ricinus (protein, listed as Ixodes ricinus)
chain: GPETKEDKKSDVYELFTVEYCGTNCTLLTNGRWTACTGKKGTCRCYHESGEKVGLCLSTEYTDFSEYPNPKSSEIDAAAPLPRETH
CXCL1_HUMAN
  Chemokines bound in yeast surface display and % cells over threshold fluorescence: CXCL1_HUMAN: CXCL1_HUMAN 63%

B10: P1096_IXORI: novel CXC-binding tick CKBP, Ixodes ricinus (protein, listed as Ixodes ricinus)
chain: HTTVTGSVEGKPNNPNEDIEVSYCRMNCTVENGVSSACSGDCVCVHRDNEPNGICVEITYFGDFGDPSQDPSIDEAAPRESVSKRRSNGES
CXCL10_HUMAN
  Chemokines bound in yeast surface display and % cells over threshold fluorescence: CXCL10_HUMAN: CXCL10_HUMAN 50%

B11: P1101_IXORI: novel CXC-binding tick CKBP, Ixodes ricinus (protein, listed as Ixodes ricinus)
chain: HTTVAGSDEDIEVSYCGMNCTVESGKSSKCSPDCVCVHEGNERDGICISITYLGDLGNPLEDPSIDLATPLAPVFQSSK
CXCL10_HUMAN
  Chemokines bound in yeast surface display and % cells over threshold fluorescence: CXCL10_HUMAN: CXCL10_HUMAN 75%

B12: P1095_IXORI: novel CXC-binding tick CKBP, Ixodes ricinus (protein, listed as Ixodes ricinus)
chain: HSPVAGSEVQKLTSDPNDDIDVSYCGMNCTVVNGKSDECSENCKCLHEGDDPKGICVAITYFGDWGDPNDDPKINEATPQTQIFEKKRK
CXCL12_HUMAN
  Chemokines bound in yeast surface display and % cells over threshold fluorescence: CXCL12_HUMAN: CXCL12_HUMAN 47%

B13: P1224_IXORI: tick CKBP, Ixodes ricinus (protein, listed as Ixodes ricinus)
chain: SDLCKMEAESSPFKLPQSSLLDAPDEEGCKYQLLFVEAEGPLVVNCTKDCPNGKIRTVVEGELCIAMVKTSSSGEATGLVGSCKRGSCVKKDDPCRTFTLSEEGDDDEEDEEEEEDEEEDEEEDEEEEEEDEEEED
CXCL10_HUMAN
  Binding to CXCL10_HUMAN, YSD: YES (An arbitrary threshold of >3 fold over background mean fluorescence intensity was chosen to describe confirmed re-tests. Where binding was detected data are indicated as “YES”)

B14: P1283_IXORI: tick CKBP, Ixodes ricinus (protein, listed as Ixodes ricinus)
chain: KEPEDTTLPPGALVDSPDSDNCSSPHLPYFDETTNMWMGFLAVNCTKKCPVGKHVTVVDGNKCIGTWSFLDELTITVLVGSCKDGFCETDGSSECRNITLAEEDSQEEEGAAAEEEDEEDEEDEEEEEAEEEREDDHDDA
CXCL10_HUMAN
  Binding to CXCL10_HUMAN, YSD: YES (An arbitrary threshold of >3 fold over background mean fluorescence intensity was chosen to describe confirmed re-tests. Where binding was detected data are indicated as “YES”)

B15: P1100_IXORI: novel CXC-binding tick CKBP, Ixodes ricinus (protein, listed as Ixodes ricinus)
chain: GSKGSSASQSSDNSVVAKFCDTNCTINEGGKWTECKGGCFCVHVGNETVGRCMKLDGDYDYPSPKPEE
CXCL9_HUMAN
  Chemokines bound in yeast surface display and % cells over threshold fluorescence: CXCL9_HUMAN: CXCL9_HUMAN 55%

B16: P1229_IXORI: novel CXC-binding tick CKBP, Ixodes ricinus (protein, listed as Ixodes ricinus)
chain: DDEFFTVDYCGMNCTLQQDGSWTPCTQKNAECKCYHESGSSVGLCLSTAYTDFNQFGDPNNSDLDAATPRHPDASSR
CXCL1_HUMAN
  Chemokines bound in yeast surface display and % cells over threshold fluorescence: CXCL1_HUMAN: CXCL1_HUMAN 66%

B17: P1174_IXORI: novel CXC-binding tick CKBP, Ixodes ricinus (protein, listed as Ixodes ricinus)
chain: LNNENELFSVEYCGANCTQQDNGSWTKCKGNCTCYHEDGKRYGLCLSTEYTDFTQFPKPTSEEIADASPRPKETNSH
CXCL8_HUMAN
  Chemokines bound in yeast surface display and % cells over threshold fluorescence: CXCL8_HUMAN: CXCL8_HUMAN 29%
